Laboratory results from patent publication US20110263454A1, “Methods of Identifying Functional Characteristics of Promoters, Transcription Modifying Proteins and Transcription Modulating Agents” (Salk Institute for Biological Studies, priority 2008, published 2011).

B1: RVRa: Rev-Erb α (NR1D1), cDNA driver (protein, UniProt P20393 1-614, looked up)
Nuclear receptor subfamily 1 …: MTTLDSNNNTGGVITYIGSSGSSPSRTSPESLYSDNSNGSFQSLTQGCPTYFPPSPTGSLTQDPARSFGSIPPSLSDDGSPSSSSSSSSSSSSFYNGSPPGSLQVAMEDSSRVSPSKSTSNITKLNGMVLLCKVCGDVASGFHYGVHACEGCKGFFRRSIQQNIQYKRCLKNENCSIVRINRNRCQQCRFKKCLSVGMSRDAVRFGRIPKREKQRMLAEMQSAMNLANNQLSSQCPLETSPTQHPTPGPMGPSPPPAPVPSPLVGFSQFPQQLTPPRSPSPEPTVEDVISQVARAHREIFTYAHDKLGSSPGNFNANHASGSPPATTPHRWENQGCPPAPNDNNTLAAQRHNEALNGLRQAPSSYPPTWPPGPAHHSCHQSNSNGHRLCPTHVYAAPEGKAPANSPRQGNSKNVLLACPMNMYPHGRSGRTVQEIWEDFSMSFTPAVREVVEFAKHIPGFRDLSQHDQVTLLKAGTFEVLMVRFASLFNVKDQTVMFLSRTTYSLQELGAMGMGDLLSAMFDFSEKLNSLALTEEELGLFTAVVLVSADRSGMENSASVEQLQETLLRALRALVLKNRPLETSRFTKLLLKLPDLRTLNNMHSEKLLSFRVDAQ
B2: RVRb: Rev-Erb β (NR1D2, alternative name RVR), cDNA driver (protein, UniProt Q14995 1-579, looked up)
Nuclear receptor subfamily 1 …: MEVNAGGVIAYISSSSSASSPASCHSEGSENSFQSSSSSVPSSPNSSNSDTNGNPKNGDLANIEGILKNDRIDCSMKTSKSSAPGMTKSHSGVTKFSGMVLLCKVCGDVASGFHYGVHACEGCKGFFRRSIQQNIQYKKCLKNENCSIMRMNRNRCQQCRFKKCLSVGMSRDAVRFGRIPKREKQRMLIEMQSAMKTMMNSQFSGHLQNDTLVEHHEQTALPAQEQLRPKPQLEQENIKSSSPPSSDFAKEEVIGMVTRAHKDTFMYNQEQQENSAESMQPQRGERIPKNMEQYNLNHDHCGNGLSSHFPCSESQQHLNGQFKGRNIMHYPNGHAICIANGHCMNFSNAYTQRVCDRVPIDGFSQNENKNSYLCNTGGRMHLVCPMSKSPYVDPHKSGHEIWEEFSMSFTPAVKEVVEFAKRIPGFRDLSQHDQVNLLKAGTFEVLMVRFASLFDAKERTVTFLSGKKYSVDDLHSMGAGDLLNSMFEFSEKLNALQLSDEEMSLFTAVVLVSADRSGIENVNSVEALQETLIRALRTLIMKNHPNEASIFTKLLLKLPDLRSLNNMHSEELLAFKVHP
B3: RARb: Retinoic acid receptor β (NR1B2), nuclear hormone receptor cDNA driver (protein, UniProt P10826 1-455, looked up)
Retinoic acid receptor beta: MTTSGHACPVPAVNGHMTHYPATPYPLLFPPVIGGLSLPPLHGLHGHPPPSGCSTPSPATIETQSTSSEELVPSPPSPLPPPRVYKPCFVCQDKSSGYHYGVSACEGCKGFFRRSIQKNMIYTCHRDKNCVINKVTRNRCQYCRLQKCFEVGMSKESVRNDRNKKKKETSKQECTESYEMTAELDDLTEKIRKAHQETFPSLCQLGKYTTNSSADHRVRLDLGLWDKFSELATKCIIKIVEFAKRLPGFTGLTIADQITLLKAACLDILILRICTRYTPEQDTMTFSDGLTLNRTQMHNAGFGPLTDLVFTFANQLLPLEMDDTETGLLSAICLICGDRQDLEEPTKVDKLQEPLLEALKIYIRKRRPSKPHMFPKILMKITDLRSISAKGAERVITLKMEIPGSMPPLIQEMLENSEGHEPLTPSSSGNTAEHSPSISPSSVENSGVSQSPLVQ
B4: RARa: Retinoic acid receptor α (NR1B1), nuclear hormone receptor cDNA driver (protein, UniProt P10276 1-462, looked up)
Retinoic acid receptor alpha: MASNSSSCPTPGGGHLNGYPVPPYAFFFPPMLGGLSPPGALTTLQHQLPVSGYSTPSPATIETQSSSSEEIVPSPPSPPPLPRIYKPCFVCQDKSSGYHYGVSACEGCKGFFRRSIQKNMVYTCHRDKNCIINKVTRNRCQYCRLQKCFEVGMSKESVRNDRNKKKKEVPKPECSESYTLTPEVGELIEKVRKAHQETFPALCQLGKYTTNNSSEQRVSLDIDLWDKFSELSTKCIIKTVEFAKQLPGFTTLTIADQITLLKAACLDILILRICTRYTPEQDTMTFSDGLTLNRTQMHNAGFGPLTDLVFAFANQLLPLEMDDAETGLLSAICLICGDRQDLEQPDRVDMLQEPLLEALKVYVRKRRPSRPHMFPKMLMKITDLRSISAKGAERVITLKMEIPGSMPPLIQEMLENSEGLDTLSGQPGGGGRDGGGLAPPPGSCSPSLSPSSNRSSPATHSP

What follows are molecules tested on hG6PD promoter (assay: NHR-promoter luciferase screen, hG6PD promoter). Conditions: G6PD promoter reporter; co-transfected HR, without or with its ligand.
Format: cell-based, human
Experimental: (§1) The use, feasibility, and reproducibility of the functional NHR-promoter screen in a 48-well format have been tested validated. Briefly, there were co-expressed 50 ng of each NHR/NHR homodimer or NHR/RXR heterodimer with 100 ng promoter/luciferase construct and 50 ng of LacZ (as a control for transfection efficiency) in CV-1 cells using Fugene HD (Roche) as a transfection reagent (alternatively or additionally, a CMV-YFP construct can be used as a transfection control). Each of the nuclear hormone receptors that were used in these experiments was cloned into a pcDNA3.1 vector and comprised a C-terminally linked V5H6 tag. Twenty-four hours after transfection, appropriate ligands were added, where applicable, (see Table 5 for various ligands and concentrations and after 48 hrs, samples were assayed for luciferase and LacZ activity. To measure for luciferase activity 15 ul of sample was added to 30 ul of luciferase buffer (20 mM tricine, 1.07 mM MgCarbonate, 2.67 mM MgSulfate, 0.1 mM Naz-EDTA, 5 mM DTT, 5 mM ATP, 0.15 mg/ml CoA, 0.5 mM Luciferin), mixed briefly, and run in a Perkin Elmer Victor 5 luminometer. Thus, the functional NHR-promoter screen was used to observe the transcriptional activity of 29 promoters from various physiological pathways including inflammation, lipid and sugar metabolism, cholesterol transport, xenobiotic metabolism, and circadian rhythm.
(§2) The promoters that facilitate transcription of the indicated gene products that were tested using the protocols described herein are listed in the first row of the table. The nuclear hormone receptors and, where applicable, ligands that were assayed for their transcriptional effects on the promoters are listed in the first column of the table. The data represent the luciferase activity of each sample normalized to both the lacZ activity of that sample and to a control, e.g., no NHR or ligand, as customary in the art. As described previously, these normalizations allow the transcriptional activity of each reporter cell to be compared to other samples.
(§3) Tables 7-40 show the transcriptional effects of the hormone receptors, and, where applicable, ligands (orphan receptors are screened without ligand), on each individual promoter. […] The control data of each table are shown in their last rows.

Row | Molecule | Luc. act., normalized to lacZ
1 | B1 | 45.9
2 | B2 | 55.5
3 | B3 | 56.6
4 | B4 | 57.1

Same assay, conditions: G6PD promoter reporter; co-transfected HR, without or with its ligand; relative to control

Row | Molecule | Normalized Luc. act., normalized to control
5 | B1 | 1.2
6 | B2 | 1.5
7 | B3 | 1.5
8 | B4 | 1.5

Same assay, conditions: hG6PD promoter-luciferase, CV-1 cells, NHR +/- ligand, control = 1.00

Row | Molecule | luciferase activity normalized to lacZ activity and to a control, hG6PD
9 | B1 | 1.23
10 | B2 | 1.48
11 | B3 | 1.52
12 | B4 | 1.53

These molecules were tested on RevErba promoter (assay: NHR-promoter luciferase screen, RevErba (RVRa) promoter). Conditions: RVRa promoter; HR component without or with ligand.
Format: cell-based
Set-up: key to mRevErba promoter reporter activity / Normalized Luc. act., normalized to control: luciferase activity normalized to lacZ and to control (no NHR/ligand)
Experimental: Briefly, there were co-expressed 50 ng of each NHR/NHR homodimer or NHR/RXR heterodimer with 100 ng promoter/luciferase construct and 50 ng of LacZ (as a control for transfection efficiency) in CV-1 cells using Fugene HD (Roche) as a transfection reagent (alternatively or additionally, a CMV-YFP construct can be used as a transfection control). Each of the nuclear hormone receptors that were used in these experiments was cloned into a pcDNA3.1 vector and comprised a C-terminally linked V5H6 tag.
as §2
The control data of each table are shown in their last rows.

Row | Molecule | Luc. act., normalized to lacZ | Normalized Luc. act., normalized to control
13 | B1 | 9.76 | 0.3
14 | B2 | 2.06 | 0.1
15 | B3 | 45.6 | 1.6
16 | B4 | 34.6 | 1.2

Same assay, conditions: RVRa promoter; given only where activity is below control

Row | Molecule | negative reciprocal of normalized Luc. act. (fold repression; Table 33)
17 | B1 | −2.865
18 | B2 | −13.5606

Same assay, conditions: RVRa promoter; log10 of activity normalized to control

Row | Molecule | normalized Luc. act. on a logarithmic scale (column without head, Table 33)
19 | B1 | −0.46
20 | B2 | −1.13
21 | B3 | 0.21
22 | B4 | 0.09

Same assay, conditions: transcription factor +/- ligand; control = 1.00

Row | Molecule | mRevErba promoter reporter activity
23 | B1 | 0.35
24 | B2 | 0.07
25 | B3 | 1.63
26 | B4 | 1.24

What follows are molecules tested on mABCA1 promoter (assay: NHR-promoter luciferase screen, mABCA1 promoter). Conditions: ABCA1 promoter; hormone receptor with or without its ligand.
Format: cell-based, mouse
Experimental: as §1, §2, §3

Row | Molecule | Luc. act., normalized to lacZ
27 | B1 | 46.3
28 | B2 | 36.8
29 | B3 | 36.8
30 | B4 | 24.6

Same assay, conditions: ABCA1 promoter; hormone receptor with or without its ligand; relative to control

Row | Molecule | Normalized Luc. act., normalized to control
31 | B1 | 8.3
32 | B2 | 6.6
33 | B3 | 6.6
34 | B4 | 4.4

Same assay, conditions: transcription factor +/- ligand; control = 1.00

Row | Molecule | mABCA1 promoter reporter activity
35 | B1 | 8.25
36 | B2 | 6.55
37 | B3 | 6.55
38 | B4 | 4.39

Each molecule was assayed on mCAR promoter (assay: NHR-promoter luciferase screen, mCAR promoter). Conditions: mCAR promoter-luciferase, CV-1 cells, NHR +/- ligand, control = 1.00.
Format: cell-based, mouse
Experimental: as §1, §2, §3

Row | Molecule | luciferase activity normalized to lacZ activity and to a control, mCAR
39 | B1 | 0.89
40 | B2 | 0.91
41 | B3 | 1.30
42 | B4 | 1.22

Same assay, conditions: mCAR promoter; HR/ligand component

Row | Molecule | Luc. act., normalized to lacZ | Normalized Luc. act., normalized to control
43 | B1 | 34.0 | 0.9
44 | B2 | 34.5 | 0.9
45 | B3 | 49.6 | 1.3
46 | B4 | 46.3 | 1.2

These molecules were tested on Bmal1 promoter (assay: NHR-promoter luciferase screen, Bmal1 promoter). Conditions: Bmal1 promoter; HR component without or with ligand.
Format: cell-based, mouse
Experimental: as §1, §2, §3

Row | Molecule | Luc. act., normalized to lacZ | Normalized Luc. act., normalized to control
47 | B1 | 2.5 | 0.2
48 | B2 | 0.8 | 0.1
49 | B3 | 15.6 | 1.0
50 | B4 | 18.9 | 1.2

Same assay, conditions: FIG. 2c, in words

Row | Molecule | regulation of the Bmal1 promoter
51 | B1 | specific repression
52 | B2 | specific repression

Same assay, conditions: transcription factor +/- ligand; control = 1.00

Row | Molecule | mBmal1 promoter reporter activity
53 | B1 | 0.16
54 | B2 | 0.05
55 | B3 | 1.00
56 | B4 | 1.21
